From patent US8778303B2, “99mTc-labeled 19 amino acid containing peptide for use as phosphatidylethanolamine binding molecular probe and radiopharmaceutical” (The Medical College of Wisconsin, Inc., priority 2008, dated 2014)
Entries after “also recorded” stand apart in the source; their conditions may differ.

Key:
[1] = tested on: radiation-induced cell death; assay: Imaging of radiation-induced cell death after whole-body irradiation; assay type: in vivo, rat; conditions: rats, 15 Gy whole-body ionizing irradiation
Excerpt: In an experimental example, 99mTc-Duramycin imaging was used to detect the distribution of radiation-prone tissues after exposure to high-dose ionizing irradiation. […] Control rats were not exposed to ionizing radiation. […] The most radiation-susceptible tissues include the thymus (arrow) and bone marrows (arrow heads and bottom insets).

acute cardiac cell death = assay: Imaging of cardiac cell death after coronary ischemia with or without reperfusion (Example 2); assay type: in vivo, rat
Experimental: Cardiology applications include imaging cardiac cell death in heart diseases, such as acute myocardial infarction, myocarditis, myocardial ischemia, and heart transplant rejection. In an experimental example using a rat model, 99mTc-Duramycin was injected into a control rat (FIG. 10A) and a rat in which coronary ischemia was induced, followed by reperfusion (FIG. 10B). Both rats were subsequently imaged. […] A similar experiment was performed using a rat model where induced coronary ischemia was not followed by reperfusion.

[2] = Stability of purified radiotracer in aqueous solution; assay type: physicochemical; conditions: once purified
Experimental: HPLC method 2. Jupiter C18 column (90 Å pore size, 250×4.6 mm) was used with a buffered mobile phase system consisting of phosphate buffer (10 mM sodium phosphate, pH 6.7) and acetonitrile at a flow rate of 1.0 ml/min at room temperature. A baseline of 5 min at 90% buffer A (phosphate buffer, pH6.7) and 10% buffer B (acetonitrile) was followed by a linear gradient to 10% buffer A and 90% buffer B in 30 min. The level of radioactivity in the HPLC elute was monitored by gamma counting at an energy window of 140±15 keV.
HYNIC-Duramycin was labeled with ^99mTc using the tricine-phosphine co-ligand system. Specifically, 15 μg of HYNIC-Duramycin was mixed with 40 mg of tricine, 1 mg of TPPTS and 20 μg SnCl2 in 0.8 ml at pH 5.3. The labeling was initiated with the addition of about 1 mCi of ^99mTc. The incubation was allowed to proceed for 40 min at room temperature. The final radiopharmaceutical, ^99mTc-HYNIC-Duramycin, was analyzed and purified using HPLC method 2. After purification, acetonitrile was removed by evaporation under nitrogen, and ^99mTc-HYNIC-Duramycin was reconstituted in saline for usage. ^99mTc-HYNIC-Duramycin^1 was synthesized in the same fashion. For stability tests, cysteine challenge was carried out at a cysteine-to-^99mTc-Duramycin ratio of 100 to 1, in 0.01 mM phosphate buffer (pH 6.8) for 2 hr at room temperature. The sample was analyzed with radioHPLC (method 2).

[3] = Biodistribution studies in healthy rats; assay type: in vivo, rat
Experimental: Biodistribution studies. […] Dynamic whole-body biodistribution profile was acquired using an in-house gamma camera (GE XRT). The anesthetized animal was continuously imaged at an energy window of 140±15 keV, field of view 22.5×22.5 cm, matrix 128×128, at 1 min per image for up to 60 min post-injection.
For quantitative biodistribution, at each designated time point after intravenous injection of radiolabeled Duramycin, including 0, 1, 5, 15, 30, and 60 min, a group of 4 rats were sacrificed. Various tissues were dissected, rinsed in saline, weighed, and the level of radioactivity was determined using direct gamma counting (140±15 keV).

stroke = conditions: in vivo

With `CC(C)=NNc1ccc(C(=O)NCCCC[C@@H]2NC(=O)[C@@H](N)CS[C@@H](C)[C@H]3NC(=O)[C@H](CC(N)=O)NC(=O)CNC(=O)[C@H]([C@@H](O)C(=O)O)NC(=O)[C@@H]4CSC[C@@H](NC(=O)[C@H](CCC(N)=O)NC2=O)C(=O)N[C@H]2CS[C@@H](C)[C@@H](NC(=O)[C@H](Cc5ccccc5)NC(=O)[C@@H]5CCCN5C(=O)CNC(=O)[C@H](Cc5ccccc5)NC(=O)[C@H](CNCCCC[C@@H](C(=O)O)NC3=O)NC2=O)C(=O)N[C@@H](Cc2ccccc2)C(=O)N[C@@H](C(C)C)C(=O)N4)cn1` [^99mTc-HYNIC-Duramycin, metal not drawn] the “detection of radiation-susceptible tissues” value [1] was “Tissues susceptible to radiation-induced cell death were detected”, the “imaging of acute cardiac cell death after reperfused coronary ischemia” value (acute cardiac cell death; infarct model rat, 120 minutes after injection) was “can be seen” and the “imaging of cardiac cell death following nonreperfused coronary ischemia” value (acute cardiac cell death; rat model) was “successfully imaged”. For the same compound, the “time with no significant level of detached 99mTc detected” value [2] was “at least 24 hrs”, the tissue uptake at 1 h ([3]; Sprague Dawley, rat, 2.3 nmole, total radioactivity, Bone, healthy rats, intravenous, 60 min post-injection (n=4)) was 0.04 ± 0.01 %ID/g and the tissue uptake at 1 h ([3]; Sprague Dawley, rat, 2.3 nmole, total radioactivity, Brain, healthy rats, intravenous, 60 min post-injection (n=4)) was 0.01 ± 0.01 %ID/g. It also gave a tissue uptake at 1 h ([3]; Sprague Dawley, rat, 2.3 nmole, total radioactivity, Colon, healthy rats, intravenous, 60 min post-injection (n=4)) of 0.11 ± 0.01 %ID/g, a tissue uptake at 1 h ([3]; Sprague Dawley, rat, 2.3 nmole, total radioactivity, Fat, healthy rats, intravenous, 60 min post-injection (n=4)) of 0.06 ± 0.06 %ID/g and a tissue uptake at 1 h ([3]; Sprague Dawley, rat, 2.3 nmole, total radioactivity, Heart, healthy rats, intravenous, 60 min post-injection (n=4)) of 0.21 ± 0.16 %ID/g. It also gave a tissue uptake at 1 h ([3]; Sprague Dawley, rat, 2.3 nmole, total radioactivity, Kidney, healthy rats, intravenous, 60 min post-injection (n=4)) of 2.32 ± 0.48 %ID/g, a tissue uptake at 1 h ([3]; Sprague Dawley, rat, 2.3 nmole, total radioactivity, Liver, healthy rats, intravenous, 60 min post-injection (n=4)) of 0.28 ± 0.01 %ID/g and a tissue uptake at 1 h ([3]; Sprague Dawley, rat, 2.3 nmole, total radioactivity, Lung, healthy rats, intravenous, 60 min post-injection (n=4)) of 0.12 ± 0.05 %ID/g. It also gave a tissue uptake at 1 h ([3]; Sprague Dawley, rat, 2.3 nmole, total radioactivity, Muscle, healthy rats, intravenous, 60 min post-injection (n=4)) of 0.03 ± 0.01 %ID/g, a tissue uptake at 1 h ([3]; Sprague Dawley, rat, 2.3 nmole, total radioactivity, Pancreas, healthy rats, intravenous, 60 min post-injection (n=4)) of 0.05 ± 0.01 %ID/g and a tissue uptake at 1 h ([3]; Sprague Dawley, rat, 2.3 nmole, total radioactivity, Skin, healthy rats, intravenous, 60 min post-injection (n=4)) of 0.01 ± 0.01 %ID/g. It also gave a tissue uptake at 1 h ([3]; Sprague Dawley, rat, 2.3 nmole, total radioactivity, Small intestine, healthy rats, intravenous, 60 min post-injection (n=4)) of 0.37 ± 0.07 %ID/g, a tissue uptake at 1 h ([3]; Sprague Dawley, rat, 2.3 nmole, total radioactivity, Spleen, healthy rats, intravenous, 60 min post-injection (n=4)) of 0.1 ± 0.02 %ID/g and a tissue uptake at 1 h ([3]; Sprague Dawley, rat, 2.3 nmole, total radioactivity, Stomach, healthy rats, intravenous, 60 min post-injection (n=4)) of 0.11 ± 0.01 %ID/g. The tissue uptake at 1 h ([3]; Sprague Dawley, rat, 2.3 nmole, total radioactivity, Thymus, healthy rats, intravenous, 60 min post-injection (n=4)) was 0.06 ± 0.02 %ID/g, the tissue uptake at 1 h ([3]; Sprague Dawley, rat, 2.3 nmole, total radioactivity, Thyroid, healthy rats, intravenous, 60 min post-injection (n=4)) was 0.08 ± 0.03 %ID/g and the excreta dose per gram or mL at 1 h ([3]; Sprague Dawley, rat, 2.3 nmole, total radioactivity, Urine, healthy rats, intravenous, 60 min post-injection (n=4), read-out: Uptake) was 22.1 ± 13.2 %ID/g. For the same compound, the tissue uptake at 1 h ([3]; Sprague Dawley, rat, whole blood, 2.3 nmole, total radioactivity, Blood, healthy rats, intravenous, 60 min post-injection (n=4)) was 0.33 ± 0.11 %ID/g, the “signs of toxicity or other adverse effects” value ([3]; at the current dosage tested, rats) was “no signs of toxicity or other adverse effects were observed” and the brain uptake ([3]; healthy rats) was “low”. For the same compound, the route of clearance ([3]; healthy rats) was “renal excretion is the predominant route of clearance”, the “uptake in the hepatic and gastrointestinal regions” value ([3]; healthy rats) was “low uptake; also recorded: very low” and the “uptake in brain, rat stroke model” value (stroke) was “Focal uptake of radioactivity is colocalized with regions of stroke”.
